Key:
[1] = molecular target: full-length H1N1 A/Puerto Rico/8/34 recombinant HA (rHA) (influenza A virus H1N1 A/Puerto Rico/8/34) (UniProt P03452)
[2] = molecular target: H1HA10 (influenza A virus H1N1 A/Puerto Rico/8/34) (UniProt A4GCI6)

Substance | Kd [1] | koff [1] | kon [1] | Kd [2] | koff [2] | kon [2]
FI6v3-scFv | 8.8 nM | 0.00216 s⁻¹ | 245000 M⁻¹ s⁻¹ | – | – | –
F10-scFv | 2.9 nM | 0.00121 s⁻¹ | 415000 M⁻¹ s⁻¹ | – | – | –
CR6261 IgG (antibody) | 8.9 nM | 0.00258 s⁻¹ | 289000 M⁻¹ s⁻¹ | 315 nM | 0.00785 s⁻¹ | 24900 M⁻¹ s⁻¹
